Test results reported in the supplement of paper PMC9170038.

System: K4 kissing-loop RNA reporter
Experiment: apparent KD of K4 kissing-loop reporter; higher = weaker reporter binding
Conditions: Eterna round: R107; input ligand: theophylline 20 uM
Description: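 RNA-MaP round R107: designed RNA switches with theophylline, tryptophan, arginine or FMN aptamers are transcribed on-chip within common flanks. They are titrated with a labelled K4 kissing-loop RNA reporter in RNA-MaP buffer (100 mM Tris pH 7.5, 80 mM KCl, 4 mM MgCl2), without ligand or with the indicated ligand. Median apparent KD per design.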
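Also: bound reporter read as fluorescence of individual clusters on recovered sequencing chips by microscopy, with normalized cluster intensities fitted with a binding model.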

For “UCUGCUGUAUAUGAUACCAGCAGUGAGAGACGAGAAGUAUAGUGAUGUUAUAUGAGAGAAUGCCCUUGGCAGCGUGUGCGUGUGG [SSTheophylB.aA]”, which “apparent KD of K4 kissing-loop reporter” value is on record?
Its value is 102 nM.

“ACAAGGGAUCCAGAUACCAGCACUCAAGGAGCUAUAUCAGCGAGUGAUGUUCGUUCAUAGUGCCCUUGGCAGCUGUACUUCCUUG [Essoengeis]” was tested. Which “apparent KD of K4 kissing-loop reporter” value did it give?
Its value is 114 nM.

Which “apparent KD of K4 kissing-loop reporter” value does the source give for “AAACAUCACUGGGAGUGAUGUUCUCAGUGACGAGGACCGGUACGGCCGCCACUCGCGAGAGAUAUAAUUAAGUAAUGACUUCAUU [Excl Tryptophan A V7]” here?
Its value is 246 nM.

For “UCUUUUGUAUAUGAUACCAGCAGUGAGAGACAGGAAGUAUAGUGAUGUUAUAUGAGAGAAUGCCCUUGGCAGCGUGUGCGGUUGG [SSTheophylB.V]”, which “apparent KD of K4 kissing-loop reporter” value is on record?
Its value is 268 nM.

For “UUAGUCUAGAGAAGGAGCGAGUGAUGUUCGCAUGAUCUCAUGAUAUCAUGAGAUCGAAAUCCUCAGGUAGGUCGCUCUAGACAUU [AK6 Exc Arginine B]”, which “apparent KD of K4 kissing-loop reporter” value is on record?
The value was 424 nM.

“AGUGAUGUUUUUUUUAAGAGUGAUGUUUUUCGAGGACCGGUACGGCCGCCACUCGAGUGAGGAGUGCGGUGGUGAGAUGUUGAGU [oomullin]” was tested. Which “apparent KD of K4 kissing-loop reporter” value did it give?
The value was 589 nM.

How did the “apparent KD of K4 kissing-loop reporter” value turn out when “GUACGCUUCCGAGUGAUGUUCGGUAAUAGUUAGGAUAUCGCUUUUGCGAGAAGGAACUGAAUGAGGAAACUCGUUCGAAGUGUAC [FMN A 17]” was run?
Its value is 396 nM.

Which “apparent KD of K4 kissing-loop reporter” value does the source give for “CCUAUCUCAUACGAUACCAGUGAAUAACCAGUGAUGUUGGAAUAACCAAGGAAUAUUUUUCACCCUUGGCAGCGUAUGGGAUAGG [Ex Theophylline B K4 27]” here?
Its value is 385 nM.

For “AAGGGCGGGACUUUCUCGCCGGAUAGAGAUACCAGCCCAGCAAAGGGCCCUUGGCAGCUCACUGACCUCAGUGAUGUUGAGGUUC [Soerrainat]”, which “apparent KD of K4 kissing-loop reporter” value is on record?
Its value is 199 nM.

“AGACUAUCGUCAAAGACGGUAGUCAAAAGUGAGGAUAUAAGUGAUGUUAGAAGGCACUAAGACUGUAUCGAAUAGAUACGGUCAA [FmnA 2 #K4BetweenAptamer #OpenEnded]” was tested. Which “apparent KD of K4 kissing-loop reporter” value did it give?
The value was 534 nM.

“CUUGAAAUGACUGAUACCAGUGAAAAUAUAUGUAGUGAUGUUAUAUACUAAUUUAAUAAGCGCCCUUGGCAGCAGUAUGAAUUAU [AstrosExc-theB#17]” was tested. Which “apparent KD of K4 kissing-loop reporter” value did it give?
The value was 764 nM.

With “AAAAUAACCCAGUGAUGUUGGUAACCAGAUACCAGCGACGAAAGUCGCCCUUGGCAGCUGUGGACGUACAAAAUAAGUACGUCCU” as the sequence, how does the “apparent KD of K4 kissing-loop reporter” value read?
Its value is 583 nM.

For “AAUAUAGUGAUGUUAUAUAAGAAGGAGUUACGAGGACCGGUACGGCCGCCACUCGAAACGAGUGAUGAUUUGGGAGAUUGGGUUG [SSTryptA.N]”, which “apparent KD of K4 kissing-loop reporter” value is on record?
The value was 433 nM.

Which “apparent KD of K4 kissing-loop reporter” value does the source give for “AAUAUACAGGGAAGGAGCGUCGUCCAGUGAUGUUGGAGUUAAAUACCAGUGAUGUUGGUUAGGCAGGUAGGUCGCCCUAAAGUAU [KL-XARG-B15]” here?
Its value is 85.1 nM.

“CUUUGGAGUGAUGUUCCAGGUUGUACGGAUACCAGCCAAGCCAGAGGCCCUUGGCAGCCGAGUAUUGCAGUGAUGUUGCGAUGGG [Same State Theophylline A GF 2]” was tested. Which “apparent KD of K4 kissing-loop reporter” value did it give?
Its value is 335 nM.

How did the “apparent KD of K4 kissing-loop reporter” value turn out when “ACCUUAUUUGCCAGUGAUGUUGGACAGGAAGGAGCGGGCAUAAGCCCAGGUAGGUCGCCUGUCAACUUUCUUAUAGCCCAAAGGU [KL-XArg-A18]” was run?
Its value is 314 nM.

How did the “apparent KD of K4 kissing-loop reporter” value turn out when “UGUACCGAGUCAGGAUAUGGCGUCGAAAGACGAAUCUUAGUGAUGUUAGGGAUCUGCGAAAGCAGUCUAGAAGGGACUUGGUACU [FmnBS 26 U37+U68]” was run?
Its value is 574 nM.

Which “apparent KD of K4 kissing-loop reporter” value does the source give for “UGUGCUGUGUAGUGUAAUGUUUUGCGGGAUACCAGAGUCUUUUUAUUCCCUUGGCAGCUUGAGUGAUGUUUGAUGCUGUUCUUGU [bbtbmullin]” here?
The value was 336 nM.

How did the “apparent KD of K4 kissing-loop reporter” value turn out when “GGAUAGGACAGAGGAUAUGGAGAGUCUACAAAGUAGGCUCAUAAUCCUUGAAUGGAAGUGAUGUUUCUAGAAGGCUGUCCUAUCG [FmnBX 18 - #SwitchBubble #StaticStem #Palindromic]” was run?
Its value is 148 nM.

Which “apparent KD of K4 kissing-loop reporter” value does the source give for “UUUAAAUAUAGUGAUGUUAUAUAACAAUGACGAGGACCGGUACGGCCGCCACUCGAGAGAGAUAAUGGUAAAAUAAAUAAUUUUC [AstrosSSTryA#3]” here?
The value was 783 nM.

For “UGAUACCAGACGGCCGCCACUCCUGCAAGUCAAAGACUUGCUAAAGGAAUCGUCCAGUGAUGUUGGAGGACCGGGUCUGGUAUCU [TrypBX 18 #SwitchBubble #Palindromic #StaticStem]”, which “apparent KD of K4 kissing-loop reporter” value is on record?
Its value is 890 nM.

With “GCCGUACGCAUGGAUACCAGAUGGCACUAUAAUCUCCCAGAGUGAUGUUCUGGCCUGCCUAUCCCUUGGCAGCCAUGCGUACGGC” as the sequence, how does the “apparent KD of K4 kissing-loop reporter” value read?
Its value is 387 nM.

For “CCAUCGCUAUUCGAUACCAGCUACUUAGUGAUGUUAAGUUAAAAUUAAUUGUAGAUUAAAAGCCCUUGGCAGCGAAUAGUGAUGG [Theophylline B K4 20]”, which “apparent KD of K4 kissing-loop reporter” value is on record?
Its value is 119 nM.

For “UGUCAUUGGUCGGCCGCCACUUCAUAAAGAGUGAUGUUCUGAAAGACGGAUCGAAAGAUCUGUCGGAGGACCGGGACCGAUGACU [FiskerMod 2 - Jieux - Same State - Tryptophan B]”, which “apparent KD of K4 kissing-loop reporter” value is on record?
Its value is 686 nM.

“AGCCUGAUAUAAGGAUAUCCGGACCGAGUAACUGAGUGAUGUUCAGGUGAAUAAUGUCUCACAUUGGGAGAAGGUAUUUCAGCGA [theeternabot_sameState_KL_FMN_B_21]” was tested. Which “apparent KD of K4 kissing-loop reporter” value did it give?
The value was 276 nM.

“AAGGUUGUGCAUGGGAGUGAUGUUCCCACGCAGGAUAUCGCUCUCGCGAGAAGGGCGAGCACAACCGCUCAAGAAACUUGAGCAA [Omei KL FMN A SS C v3]” was tested. Which “apparent KD of K4 kissing-loop reporter” value did it give?
Its value is 402 nM.

For “CCCUUGGUAUAUCGGUAUGUAUAAGCGGAUACCAGCCAGGACAACGGCCCUUGGCAGCCGGGCAGGCAGAGUGAUGUUCAUGCUA [theeternabot_exclusion_KL_Theo_A_22]”, which “apparent KD of K4 kissing-loop reporter” value is on record?
Its value is 535 nM.
